assay: yeast display, Sf9 membrane polyspecificity reagent, FACS + sequencing; frameworks hold sequencing errors
Summary of the method: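 Genes from sorted yeast were amplified by colony PCR, read by MiSeq 2 × 250 sequencing and filtered on CDR length. These cells carried a synthetic nanobody library in Saccharomyces cerevisiae BJ5465 and were sorted by FACS into low and high (top ~1%) gates on anti-HA and streptavidin fluorescence. Polyreactivity is labelled according to the gate of origin.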

Sequence | polyreactivity (PSR sort gate)
QVQLVESGGGLVQAGGSLRLSCAASGSTFGRNAMGWYRQAPGKERELVAAISKTGGSTYYADSVKGRFTISRDTAKNTVYLQMNSLKPEDTAVYYCAARIRGFRTYYYWGQGTQVTVSS | high polyreactivity
QVQLVESGGGLVQAGGSLRLSCAASGSTFGRYAMGWSRQAPGKEWELVAAISGRGGSTYYADSVKGRFTISRDNAKNTVYLQMNSLKPEDTAVYYCAVRYYSARYWYGYDYWGQGTQVTVSS | high polyreactivity
QVQLVESGGGLVQAGGSLRLSCAASGSTFGRYAMGWYRQAPGKARELVAAITTSGGRTRYADSVKGRFTISRDNAKNTVYLQMNSLKPEDTAVYYCAASGAQGPDYDYWGQGTQVTVSS | low polyreactivity
QVQLVESGGGLVQAGGSLRLSCAASGSTFGRYAMGWYRQAPGKERELVAAISARGGSTYYADSVKGRFTISRDNAKNTVYLQMNSLKPEDTAVYYCNVDYLLHGGRFDYWGQGTQVTVSS | high polyreactivity
QVQLVESGGGLVQAGGSLRLSCAASGSTFGRYAMGWYRQAPGKEREMVAAISQRGGSTYYADSVKGRFTISRDYAKNTVYLQMNSLKPEDTAVYYCAAYYTRIRNHYGYWGQGTQVTVSS | high polyreactivity
QVQLVESGGGLVQAGGSLRLSCAASGSTFGSNAMGWYRQAPGKERELVAAIRWSGGSTYYADSVKGRFTISRDNAKNTVYLQMNSLKPEDTAVYYCAGSFFQYNRRFNYWVQGTQVTVSS | high polyreactivity
QVQLVESGGGLVQAGGSLRLSCAASGSTFGSNAMGWYRQAPGKERELVAAIRWSGGSTYYADSVKGRFTISRDNAKNTVYLQMNSLKPEDTAVYYFAGYYFQYNRRFNYWGQGTQVTVSS | high polyreactivity
QVQLVESGGGLVQAGGSLRLSCAASGSTFGSNDMGWYRPAPGKERELVAGITWSGGSTFYADSVKGRFTISRDTAKNTVYLQMNSLKPEDTAVYYCAVSTEVNRYHAKYDYWGQGTQVTVSS | low polyreactivity
QVQLVESGGGLVQAGGSLRLSCAASGSTFGSYAMGWYRQAPGKERELVAAISRGGGSTYYADSVKGRFTISRDNAKNTVYLQMKSLKPEDTAVYYCAASFSRYGLVLYSIEDYWGQGTQVTVSS | high polyreactivity
QVQLVESGGGLVQAGGSLRLSCAASGSTFGSYAMGWYRQAPGKERELVASISLSDGSTYADSVKGRFTISRDNAKNTVYLQMNSLKQEDTAVYYCNVDWFSHDSDYYSFAYDYWGQGTQVTVSS | high polyreactivity
QVQLVESGGGLVQAGGSLRLSCAASGSTFGSYVMGWYRQAPGKERELVAAISQRGTSTYYADSVKGRFTISRDNAKNTVYLQMNSLKPEDTAVYYCNALYWQIGDDYWGQGTQVTVSS | high polyreactivity
QVQLVESGGGLVQAGGSLRLSCAASGSTFGTNAMGWYRQAPGKEREFVAAISRRGGRTYYADSVKGRFTISRDNAKNTVYLQMNSLKPEDTAVYYCNAVSTGQGLYDYWGQGTQVTVSS | high polyreactivity
QVQLVESGGGLVQAGGSLRLSCAASGSTFGTNAMGWYRQAPGKERELVAAISVSSTYYADSVKGRFTISRDNAKNTVYLQMNSLKPEDTAVYYCAADNSYGYRLDYWGQGTQVTVSS | low polyreactivity
QVQLVESGGGLVQAGGSLRLSCAASGSTFGTNAMGWYRQAPGKERELVARINSSASTTYADSVKGRFTISRDNAKNTVYLQMNSLKPEDTAVYYCNADDRHSRVGHSWQDAQFDYWVQGTQVTVSS | high polyreactivity
QVQLVESGGGLVQAGGSLRLSCAASGSTFGTYAMGWYRQAPGKEREFVAVIRWSGGSTYYADSVKGRFTISRDNAKNTVYLQMNSLKPEDTAVYYCNADTRVKYVGWMYYWGQGTQVTVSS | high polyreactivity
QVQLVESGGGLVQAGGSLRLSCAASGSTFGTYAMGWYRQAPGKERELVAAINTSGGSTTYADSVKGRFTISRDNAKNTVYLQMNSLKPEDTAVYYCAKDTTGDAYSEYDYWGQGTQVTVSS | low polyreactivity
QVQLVESGGGLVQAGGSLRLSCAASGSTFGVNAMGWYRQAPGKERELVAAIRSAVPTYYADSVKGRFTISRDNAMNTVYLQMNSLKPEETAVYYCAARHRESQRRYDYWGQGTQVTVSS | high polyreactivity
QVQLVESGGGLVQAGGSLRLSCAASGSTFGVNARGWYRQAPGKERELVAGITWTGGSSYYADSVKGRFTISRDNAKNTVYLQMNSLKPEDTAVYYCAKDWYSSYYDDSEDSWGQGTQVTVSS | low polyreactivity
QVQLVESGGGLVQAGGSLRLSCAASGSTFGVSAMGWSRQAPGKERELVAAISGRGGRTYYADSVKGRFTISRDNAKNTVYLLMNSLKPEDTAVYYFAVVGSAYQSRYDYWGQGTQVTVSS | high polyreactivity
QVQLVESGGGLVQAGGSLRLSCAASGSTFGVYAMGRYRQAPGKERELVAAISYGDSTNYADSVKGRFTISRDNAKNTVYLQMNSLIPEDTAVYYCNALELYAAYPEYYLYYWYDYWGQGTQVNVSS | high polyreactivity
QVQLVESGGGLVQAGGSLRLSCAASGSTFGWNTMGWYRQAPGKERELVAAISWSGDRTYYADSVKGRFTISRDNAKNTVYLQMNSLKPDDTAVYYCARQRYYGYYYWGQGTQVTVSS | high polyreactivity

Sequence | polyreactivity (PSR sort gate)
QVQLVESGGGLVQAGGSLRLSCAASGSTFGWYAMGWDRQAPGKERELVAAIRNNDGRTYYADSVKGRFTISRDNAKNTVYLQMNSLKPEDTAVDYCNKRLDTVGWYHGYNYWGQGTQVTVSS | low polyreactivity
QVQLVESGGGLVQAGGSLRLSCAASGSTFGWYAMGWFRQAPGKERELVAAITSGGSTKYADSVKGRFTISRDNAKNTVYLQMNSLKPEDTAVYYCATVRGYYSPVQVIGYFWGQGTQVTVSS | high polyreactivity
QVQLVESGGGLVQAGGSLRLSCAASGSTFGWYAMGWYRQAPGKERELVAAISTSGNTYYADSVKGRFTISRDNAKNTVYLQMNSLKPEDTAVYYCAKYVNPDHDYWGQGTQVTVSS | low polyreactivity
QVQLVESGGGLVQAGGSLRLSCAASGSTFGWYAMGWYRQAPGKERELVASISRSGGRTFYADSVKGRFTISRDNAKNTVYLQMNRLKPEDTAVYYCAADALIYYKGSPDYYWGQGTQVNVSS | high polyreactivity
QVQLVESGGGLVQAGGSLRLSCAASGSTFGWYAMGWYRQAPGKERELVATISTTGGRTYYADSVKGRFTISRDNAKNTVYLQMNSLKPEDTAVYYCAARAFYKRYFAFDYWGQGTQVTVSS | high polyreactivity
QVQLVESGGGLVQAGGSLRLSCAASGSTFGWYAMGWYRQAPGKETELDAAISWSGGSTYYADSVKGRFTISRDNAKNTVYLQMNSLKPEDTAVYYCARDTQYPYYFLMDYWGQGTQVTVSS | low polyreactivity
QVQLVESGGGLVQAGGSLRLSCAASGSTFGWYTMAWYRQAPGKERELVAAITSRGTRTSYADSVKGRFTISRDNAKNTVYLQMNSLKPEETAVYYCAARVFRGLGEYYWGQGTQVTVSS | high polyreactivity
QVQLVESGGGLVQAGGSLRLSCAASGSTFGWYTMGWYRQAPGKERELVAAINYSGGSTYYADSVKGRFTISRDNAKNTVYLQMISLKPEDTAVYYCAADGTWSIYGGLYYWGQGTQVTVSS | low polyreactivity
QVQLVESGGGLVQAGGSLRLSCAASGSTFGYNAMGWSRPAPGKERELVAAITWSGGSTYYADSVKGRFTISRDNAKNTVYLQMNSLKPEDTAVYYCAADDWYNSKWHYYYWGQGTQVTVSS | low polyreactivity
QVQLVESGGGLVQAGGSLRLSCAASGSTFGYNAMGWYRQAPGKERELVAAIRRSGGSTYYADSVKGRFTISRDNAKNTVYLQMNSLKPEDTAVYYCAAAGGKRHEYWGQGTQVTVSS | high polyreactivity
QVQLVESGGGLVQAGGSLRLSCAASGSTFGYNAMGWYRQAPGKERELVAAISYSGGSTSYADSVKGRFTISRDNAKNTVYLQMNSLKPEDTAVYYCAADEGTGQASLSSNLYDYWGQGTQVTVSS | low polyreactivity
QVQLVESGGGLVQAGGSLRLSCAASGSTFGYNAMGWYRQAPGKERELVAAITWSGGSTYYADSVKGRFTISRDNAKNTVYLQMNSLKPEDTAVYYCAADDWYNSTWHYYYWGQGTQVTVSS | low polyreactivity
QVQLVESGGGLVQAGGSLRLSCAASGSTFGYNAMGWYRQAPGKERELVAAITWTGASTYYADSVKGRFTISRDIAKNTVYLQMNSLKPEDTAVYYCNRVGYQSMNYWGQGTQVTVSS | low polyreactivity
QVQLVESGGGLVQAGGSLRLSCAASGSTFGYNGLGWYRQAPGKERELVAAISGGARTYADSVKGRFTISRDNAKNTVYLQMNSLKPEDTSVYYCAADSPVSVTADDGYWGQGTQVTVSS | low polyreactivity
QVQLVESGGGLVQAGGSLRLSCAASGSTFGYNGMGWYRQAPGKERELVAAISGGARTYADSVKGRFTISRDNAKNTVYLQMNSLKPEDTAVYYCAADSPVSVTADDGYWGQGTEVTVSS | low polyreactivity
QVQLVESGGGLVQAGGSLRLSCAASGSTFGYNGMGWYRQGPGKERELVAAISGGARTYADSVKGRFTISRDNAKNTVYLQMNSLKPEDTAVYYCAADSPVSVTADDGYWGQGTQLTVSS | low polyreactivity
QVQLVESGGGLVQAGGSLRLSCAASGSTFGYYAMGWYIQAPGKERELVAAISWPGGSTYYADSVKGRFTISRDNAKNTVYLQMNSLKPEYTAVYYCAADTPYWQSSKYDYWGQGTQVSVSS | high polyreactivity
QVQLVESGGGLVQAGGSLRLSCAASGSTFGYYAMGWYRQAPGKERELVAAIRWSGSTYYADSVKGRFTISRDNAKNTVYLQMNSLKPEDTAVYYCAADFVKRQANRQFDYWGQGTQVTVSS | high polyreactivity
QVQLVESGGGLVQAGGSLRLSCAASGSTFGYYAMGWYRQAPGKERELVAAISLGGGSTYYADSVKGRFTISRDNAKNTVYLQMNSLKPEDTEVYYCAARPYVRVKWKFNYWGQGTQVTVSS | low polyreactivity
QVQLVESGGGLVQAGGSLRLSCAASGSTFGYYAMGWYRQAPGKERELVAAISRGDSTNYADSVKGRFTISRDNAKNTVYLQMNSLKPEDTAVYYCAADQLNVCREYVEYDYWGQGTQVTVAS | low polyreactivity

— the nanobody polyreactivity screen of Harvey et al. (2022)
